From patent US20250170129A1, “SENOTHERAPEUTIC AGENTS AND ALPHA-KLOTHO POLYPEPTIDES” (Mayo Foundation for Medical Education and Researc, priority 2022, published 2025) come the findings set out here.

Assay [1] deals with α-Klotho. As to the kind of experiment: Senolytics on non-senescent human astrocytes, α-Klotho Western blot and qPCR. As to conditions: Dasatinib (200 nM) plus Quercetin (10 μM) or Fisetin (10 μM), 48 hours. The format is cell-based. Here is the method: FIGS. 11A-11C. […] Non-senescent human astrocytes were treated with vehicle, Dasatinib (200 nM) plus Quercetin (10 μM), or Fisetin (10 μM) for 48 hours. FIG. 11A) α-Klotho was assayed by Western blotting with GAPDH as the loading control. FIG. 11B) α-Klotho mRNA was assayed by qPCR. FIG. 11C) Non-senescent human adipose progenitor cells were treated with Dasatinib (500 nM) plus Quercetin ([…]) or vehicle for 48 hours. α-Klotho mRNA was assayed by qPCR.
For orientation: A western blot detects proteins with antibodies after separation by electrophoresis.

Assay [2] deals with α-Klotho. Put plainly: Senolytics in naturally-aged mice, α-Klotho in urine, kidney, brain. The format is in vivo, mouse. The conditions noted are these: naturally-aged male mice 28-29-month-old, oral, vs vehicle (FIG. 4A).
Experimental: Wild-type C57BL/6 mice were randomly assigned to D+Q, Fisetin (F), or vehicle treatments. Treatments were started at age 26-27 months for old animals, and for DIO mice after 7-8 months of high fat-feeding beginning at 4 months of age. Mice were treated every 20 days with D+Q, F, or vehicle by oral gavage for 3 consecutive days in each of 3 cycles over 2 months (9 doses in total).
The subject of assay [3] is α-Klotho. As to the kind of experiment: Senolytics in mice transplanted with senescent preadipocytes, urinary α-Klotho. The format is in vivo, mouse. As to conditions: young mice transplanted i.p. with senescent cells, treated after 3 months (FIG. 4C). Here is the method:
FIGS. 4A-4D. Senolytics increase urinary and kidney α-Klotho in old or obese mice. FIG. 4A) Naturally-aged male mice (28-29-month-old, n=10 in each group) were treated with vehicle, Dasatinib plus Quercetin (D+Q), or Fisetin. Urinary α-Klotho was measured by ELISA and expressed as a function of creatinine. One-way ANOVA: F=6.39; p<0.0^5, R^2=0.30; *p=0.02, **p<0.01. FIG. 4B) DIO mice (male, 10-month-old, n=8) were treated with vehicle or D+Q and urinary α-Klotho was assayed by ELISA and expressed as a function of creatinine. Unpaired T test; **p<0.01. FIG. 4C) Six-month-old male mice (n=6 in each group) were transplanted i.p. with senescent preadipocytes. After 3 months, they were treated with vehicle, D+Q, or Fisetin. Urinary α-Klotho was assayed by ELISA and expressed as a function of creatinine. One-way ANOVA and post hoc Tukey's tests: Kruskal-Wallis statistic=10.19; *p=0.02, **p<0.01. FIG. 4D) Kidney α-Klotho protein was also assayed in the same transplanted mice by Western blotting. One-way ANOVA: F=24.24; p<0.001, R^2=0.83; ***p<0.001. […]
α-Klotho was assayed by ELISA in 1:100 diluted mouse urine (IBL America, #27601). […] Urine α-Klotho measurements are expressed as a function of urine volume, creatinine (R&D Systems, #KGE005), and/or cystatin C (R&D Systems, #MSCTC0).

Assay [4] has as its system α-Klotho. Put plainly: Recombinant SASP factor treatment of non-senescent HBAs, α-Klotho qPCR. The conditions noted are these: non-senescent HBAs treated with recombinant protein (FIG. 1F). The format is cell-based, human. The source says: (§1) FIGS. 1A-1F. Senescent cell conditioned medium decreases α-Klotho; blocking particular SASP factors with neutralizing antibodies partially restores α-Klotho. FIGS. 1A-1C) Conditioned media (CM) collected from senescent or non-senescent (FIG. 1A) human primary kidney endothelial cells (HKEs; one-way ANOVA: F=19.10, p<0.0001, R^2=0.89; n=3; ****p<0.0001); (FIG. 1B) human umbilical vein endothelial cells (HUVECs; one-way ANOVA: F=3.02, p=0.02, R^2=0.58, n=3; *p=0.02, **p=0.01); or (FIG. 1C) human brain astrocytes (HBAs; one-way ANOVA: F=7.93, p=0.02, R^2=0.66; n=5; ***p<0.001, *p=0.03) were applied to non-senescent HKEs, HUVECs, or HBAs, respectively, with or without antibodies against PAI-1, CXCL1, IL-6, activin A, TNF-α, IL-1α, IL-1β, or IL-18 for 48 hours. α-Klotho mRNA was assayed by qPCR. Means SEM. FIGS. 1D-1F) Primary HKEs (FIG. 1D; n=4), HUVECs (FIG. 1E; n=4), or HBAs (FIG. 1F; n=4) were treated with recombinant activin A or IL-1α. α-Klotho was assayed by qPCR 24 hours after treatments. Means±SEM; unpaired T-tests; ***p<0.001, ****p<0.0001. […]
(§2) Each cDNA sample was generated by reverse transcription using 1 μg RNA following the manufacturer's protocol (Thermo Fisher Scientific). […] Data were analysed by the ΔΔCt method.

Assay [5] has as its system α-Klotho. As to the kind of experiment: Recombinant SASP factor treatment of non-senescent HKEs, α-Klotho qPCR. The format is cell-based, human. The conditions noted are these: non-senescent HKEs treated with recombinant protein (FIG. 1D).
Text: as §1, §2
(In general: Real-time PCR tracks product formation cycle by cycle.)

The test system of assay [6] is α-Klotho. As to the kind of experiment: Recombinant SASP factor treatment of non-senescent HUVECs, α-Klotho qPCR. The format is cell-based, human. The conditions noted are these: non-senescent HUVECs treated with recombinant protein (FIG. 1E).
Text: as §1, §2

In the case of `O=c1c(O)c(-c2ccc(O)c(O)c2)oc2cc(O)ccc12` [F, Fisetin], in the assay on α-Klotho [1], the “α-Klotho (Western blotting, mRNA qPCR)” value is recorded as “did not increase”. The “urine α-Klotho (ELISA, function of creatinine)” value in the assay on α-Klotho [2] is given as “increased”. Also, the “urinary α-Klotho (ELISA, function of creatinine)” value in the assay on α-Klotho [3] is on record as “increased”.

B1: recombinant activin A: recombinant human activin A (R&D Systems, #338-AC) (protein, UniProt P08476 311-426, looked up)
Inhibin beta A chain: GLECDGKVNICCKKQFFVSFKDIGWNDWIIAPSGYHANYCEGECPSHIAGTSGSSLSFHSTVINHYRMRGHSPFANLKSCCVPTKLRPMSMLYYDDGQNIIKKDIQNMIVEECGCS
Regarding B1, the “expression of α-Klotho (qPCR)” value in the assay on α-Klotho [4], in the assay on α-Klotho [5] and in the assay on α-Klotho [6] was “decreased expression of α-Klotho” in each case.

B2: IL-1α: recombinant human IL-1α protein (R&D Systems, #00-LA-010) (protein, UniProt P01583 113-271, looked up)
Interleukin-1 alpha: SAPFSFLSNVKYNFMRIIKYEFILNDALNQSIIRANDQYLTAAALHNLDEAVKFDMGAYKSSKDDAKITVILRISKTQLYVTAQDEDQPVLLKEMPEIPKTITGSETNLLFFWETHGTKNYFTSVAHPNLFIATKQDYWVCLAGGPPSITDFQILENQA
On to B2, for which the “expression of α-Klotho (qPCR)” value in the assay with α-Klotho [4], in the assay with α-Klotho [5] and in the assay with α-Klotho [6] was “decreased expression of α-Klotho” each time.
